Data on one substance can be found in article PMC6010203.

In this test the target is DS_ConC_SOSIP trimer (ConC_SOSIP with the disulfide 201C-433C) (HIV-1 (clade C consensus)). The test is described as follows: negative-stain electron microscopy.

Substance “DS_ConC_SOSIP trimer (ConC_SOSIP with the disulfide 201C-433C) (complex)” had a stoichiometry N of 3.
